What all share (assay): SPOT alanine scanning, spot intensity
Assay [1] addresses HER3 peptide 342-356 … with Asp352 replaced by alanine (human).
Assay [2] concerns the target HER3 peptide 343-357 … with Asp352 replaced by alanine (human).
Assay [3] deals with HER3 peptide 344-358 … with Asp352 replaced by alanine (human).
Assay [4] deals with alanine analogs at Pro353 and Ile357 of the HER3 pentadecapeptides 342-356, 343-357 and 344-358.

B1: mAb H4B-121 (purified human IgG) (antibody, V domains shown)
VH: EVQLVESGGGLVQPGRSLRLSCAASGFTFDDYAMHWVRQAPGKGLEWVSGISWNSGSIGYADSVKGRFTISRDNAKNSLYLQMNSLRAEDTAVYYCAREGQWPNYGMDVWGQGTTVTVSS
VL: QSVLTQPPSVSAAPGQKVTISCPGSSSNIGNNYVSWYQQLPGTAPKLLIYDNNERPSGIPDRFSGSTSGTSATLDITDLQAEDEATYYCGAWDNTLGVYVLGTGTQLTVL
B1: the decrease in binding capacity against the unmodified peptide in assay [1], in assay [2] and in assay [3] was 92% each time. In assay [4], this molecule had a decrease in antibody reactivity against the unmodified peptide of 40 to 60%.

(Values after patent US20140141019A1.)
